Assay: yeast display, Sf9 membrane polyspecificity reagent, FACS + sequencing; frameworks hold sequencing errors
Procedure, shortened: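 Galactose-induced (36–48 hours) yeast carrying a synthetic nanobody display library were exposed to 10% biotinylated, detergent-solubilized Sf9 membrane reagent at 4 °C for 1 hour. FACS followed streptavidin microbead enrichment, using low and high (top ~1%) gates for expression (anti-HA) and reagent binding (streptavidin). Colony PCR, MiSeq 2 × 250 sequencing and CDR-length filtering followed. Labels for polyreactivity reflect the gate of origin.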

Row | Sequence | polyreactivity (PSR sort gate)
1 | QVQLVESGGGIVQAGGSLRLSCAASGMGWYRQAPGKERELVADITSRGGSTYYADSVKGRFTISRDNAKITVYLQMNSLKPEDTAVSYCAARKRVVQFDYWGQGTQVTVSS | low polyreactivity
2 | QVQLVESGGGLVQAGGSLRLSCAASGYTFYANAMGWYRQAPGKEREFVASINYSGGSTYYADSVKGRFTISRDNAKNTVYLQINSLKPEDTSVYYCAARTGTLDDWDYAYDYWGQGTQVTVSS | low polyreactivity
3 | QVQLVESGGGLVQAGGSLRLSCAASGLTFWDNAMGWYRQAPGKERELVAAIRGGGSTYYADSVKGRFTISRDNAKNTVYLQMNSLKPEDTAVYYCNAESYQDTLFGADNDYDYWGQGTQVTVSS | low polyreactivity
4 | QVQLQDSGGGLVQAGGSLRQNCETSGTIFVLWYMGWYRQAPGKERELVATINDGANTYYADSVKGRFTINRDNANSTVYMKMNSLIPEDTAVYYCAVYAIIVWGLGYWGQGTQVTVSS | high polyreactivity
5 | QVQLVESGGGLVQAGGSLRLSCAASGFTFTSYTMGWYRQAPGKERELVAAISYSGGNTYYADSVKGRFTISRDNAKNTVYLQMNSLKQEDTAVYYCAARYWYDSSNYSYDYWGQGTQVTVSS | low polyreactivity
6 | QVQLVESGGGLVQAGGSLRLSCAASGRIFRRYAMGWYRQAPGKEREFVAAITKSGGSTYYADSVKGRFTISRDNAKNTVYLQMNSLKPEDTAVYYCATYPQYYFGYDYWGQGTQVTVSS | high polyreactivity
7 | QVQLVESGGGLVQAGGSLRLSCAASGRISYSNAMGWYRQAPGKERELVAAITSSGGSTYYADSVKGRFTISRDNAKNTVYLQMNSLKPEDTAVYYCAAVAYALGFASKEDYWGQGTQVTVSS | high polyreactivity
8 | QVQLVESGGGLVQEGGSLRLSCAGSGRTFTFNVMGWYRQAPGKEREFVAAITGTDGSTYYADSVKGRFTISRDNAKNTVYLQMNSLKPEDTAVFYCAARYDWGYVDPGDYWGQGTQVTVSS | high polyreactivity
9 | QVQLVESGGGFVQAGGSLRLSCAASGRTIPYYAMGWYRQARGKEWELVATISTGDSTYYADSVKGRFTISRDNAKNTLYLQMNSLKPEATAVYSCAKDRYTYWSVHAFRRLDYWGKGTQVTVSS | low polyreactivity
10 | QVQLEESGGGLVQAGGSLRLSCAASGGIFYEYAMGRYRQAPGKERELVATISFNVASTYADSVKGRFTISRDNAKNTVFLQMNSMKPEDTAVYYCIADTYWYRDSRYDYWGQGTQVTVSS | low polyreactivity
11 | QVQLVESGGGLVQAGGSLRLSCAASGSTFGVNAMGWYRQAPGKERELVAAIRSAVPTYYADSVKGRFTISRDNAMNTVYLQMNSLKPEETAVYYCAARHRESQRRYDYWGQGTQVTVSS | high polyreactivity
12 | QVQLVESGGGLVQAGGSLRLSCAASGFTFYRYAMGWYRQAPWKERELVAVISGNAGSTYYADSVKGRFTISRDNAKNTVYLQMNSLKPEDTAVYYCNARKARAYGTFEYWGQGTQVTVSS | high polyreactivity
13 | QVQLVESGGGLVQAGGSLRLSCAASGGIFIDYALGWYRQAPGKERELVAAITYSGTSTSYADSVKGRFTISRDNAKITVYLQMNSLKPEDTAVYYCNTYPVLFYVGLDYWGQGTQVTVSS | low polyreactivity
14 | QVQLVESGGGLVQAGGSLRLSCAASGRPFTWYALGWYRQAPGKEREVVAAISKSGGSTYYADSVKGRFTISRDNAKNTVYLQMNSLKPEDTAVYYCNADFYGYFLGYGYCGQGTQVTVSS | low polyreactivity
15 | QVQLVESGGGLVQAGGSLRLSCAASGSTFYFNAMGWYRQAPGKERELVATISDNDGSTNYADSVKGRFTISRDNAKNTVYLQMNSLKPEDTAVYYCNADWYYYYEEDDYWGQGTQVTVSS | low polyreactivity
16 | QVQLVESGGGLVQAGGSLRLSCDASGRTFLTNTMGWYRQAPGKERELVAAISSGGSTKYADSVKGRFTISRDNAKNTVYLQMNSLKPEDNAVYYCAATGWRYGYKYYYWGQGTQVTVSS | high polyreactivity

Row | Sequence | polyreactivity (PSR sort gate)
17 | QLQLVESGGGLVQAGGSLRLSCAASRRIFDRNAMGWYRQAPGKERELVARIDPGDDTNYADSVKGRFTISRDNAKNTVSLQMNSLKPEDSAVYYCATDPDYVLYRTAYYEYDYWGLGTQVTVSS | low polyreactivity
18 | QVQLVESGGGLVQAGGSLRLSCAASGIIFFPYAMGWYRQAPGKEREFVAAITSRGGSTYYADSVKGRFTISRDNAKNTVYLQMNSLKPEDTAVYYCAADHLGRARGPWRYNYWGQGTQVTVSS | low polyreactivity
19 | QVQLVESRGGLVQAGGSLRLSCAASGFTFDNYGMGWYSQAPGKERELVAAISKSGTSTYYADSGKGRFTITRDNAKNTVYLQMNSLNPEDTAVYYCSGALPGYGDYYYWGQGTQVTVSS | high polyreactivity
20 | QGQLVESGGGLVQAGGSLRLSCAASGFSFLRYAMGWYRQAPGKERELVAAISTSGGSTSYADSVKGRFTISRDNAKNTVSLQKNSLKQEDTAVYYCNAVLYKVSISEYDYWGQGTQVTVSS | high polyreactivity
21 | QVQLVESGGGLVQAGGSLRLSCAASGSIISWYVMGWYRQAPGKERELVAAITWGGGSRYYADSVKGRFTISRDNAKNTVYLQMNSLKPEDTAVYYCEFDYWGQGTQVSVSS | low polyreactivity
22 | QVQLVESGGGLVQAGGRLRLSCAASGRIFKSNAMGWYRQAPGKERELVATIDVIGTSTYYADSVKGRFTISRDNAKNTVYLQMNSLKPEDTAVYYCAAVGWGGWSDSYDYWGQGTQVTVSS | low polyreactivity
23 | QVQLVESGGGLVQAGGSLRLSCAASGYTFGQYAMGWYRQAPGKEREFVAAINRSGGSTYYADSVKGRFTISRDNAKNTVYLQMNSLKPEDTAVYYCNAGYRRSSHFREHDYWGQGTQVTVSS | high polyreactivity
24 | QVQLVESGGGLVQAGGTLRLSCAASGSIFTYNAMGWYRQAPGKERELVAAITRSGGRTYYADSVKGRFTISRDNAKNTVYLQMNSLKPEDNAVYYCNTLRVGWGQGTQVTVSS | high polyreactivity
25 | QVQLVESGGGLVQAGGSLRLSCAASGRIFGGYAMGWYRQAPGKERELVATITANGGRTRYADSVKGRFTISRDNAKNTVYLQMNSLKPEDTAVYYCARVYYSSSGYGYWGQGTQVTVSS | high polyreactivity
26 | QVQLLESGGGLVQAGGSLRLSCAASGLTFSSYTMGWYRQAPGKERELVAANTRRGTSTYYADSVKGRFTISRDNAKNTVYLQMNSLKPEDTAVYYCNALVYDEYGYYHYYLRNGGYYWGQGTQVTVSS | high polyreactivity
27 | QDQLVESGGGLVQAGGSLRLICAASGRTFITYSMGWYRQAPGKERELVAAISWNGGTTYYADSVKGRFTISRDNAKNTVYIQMNSLKPEVTAVYYCAGYRWYSAARMGYWGQGTQVTVSS | high polyreactivity
28 | QVQLVESGGGLVQAGGSLRLSCAASGRIFYKNVMGWYRPAPGKERELVATITRRGGRTFYADSVKGRFTISRDNAKNTVYLQMNSLKPEDTAVYFCNVLPQPGKESTGDDYWGQGTQVTVSS | high polyreactivity
29 | QVQLVESGGGLVQAGGSLRLSCAASGSISVRNVMGWYRQAPGKERELVATIRRPGGSTSYADSVKGRFTISRDNAKNTVYLQMNSLKPEDTAVYYCAAVGYTTYRRYDYWGQGTQVTVSS | low polyreactivity
30 | QVQLVESGGGLVQAGGSLRLSCAASGITFLNYAMGWYRQAPGKERELVAAISWSGGRTYYADSVKGRFTISRDKGKNTVYLQMNSLKPEDTAVYYCAADRGVNSYGYWGQGTQVTVSS | high polyreactivity
31 | QVQLVESGGGLVQAGGSLRLSCAASGIIFVKYAMGWYRQAPGKERQLVAAITSGGSTYYADSVKGRFTISRDNAMYTVYLQMNSLKPEDTAVYYCNADSWFLYFFTINGYWGQGTQVTVSS | high polyreactivity
32 | QVQLVESGGGLVQAGGSLRLSCAASGGIFYDYTMGWYRQAPGKERELVAVISSSGSTYYADSVKGRFTISRDNAKNTVYLLMNSLKPEDTAVYYCNALGWYGDYDYWGQGTQVTVSS | low polyreactivity

Reference: the nanobody polyreactivity screen of Harvey et al. (2022)
